{"source": "patent US8741849B2", "about": "“Kinase inhibitors and uses thereof” (priority 2007, dated 2014)", "key": {"PKC β 1 (h)": {"molecular_target": "T1, PKC β 1 (h) (Homo sapiens, UniProt P05771)", "T1 construct": "purchased Upstate (Millipore) KinaseProfiler service", "T1 sequence (P05771 whole entry)": "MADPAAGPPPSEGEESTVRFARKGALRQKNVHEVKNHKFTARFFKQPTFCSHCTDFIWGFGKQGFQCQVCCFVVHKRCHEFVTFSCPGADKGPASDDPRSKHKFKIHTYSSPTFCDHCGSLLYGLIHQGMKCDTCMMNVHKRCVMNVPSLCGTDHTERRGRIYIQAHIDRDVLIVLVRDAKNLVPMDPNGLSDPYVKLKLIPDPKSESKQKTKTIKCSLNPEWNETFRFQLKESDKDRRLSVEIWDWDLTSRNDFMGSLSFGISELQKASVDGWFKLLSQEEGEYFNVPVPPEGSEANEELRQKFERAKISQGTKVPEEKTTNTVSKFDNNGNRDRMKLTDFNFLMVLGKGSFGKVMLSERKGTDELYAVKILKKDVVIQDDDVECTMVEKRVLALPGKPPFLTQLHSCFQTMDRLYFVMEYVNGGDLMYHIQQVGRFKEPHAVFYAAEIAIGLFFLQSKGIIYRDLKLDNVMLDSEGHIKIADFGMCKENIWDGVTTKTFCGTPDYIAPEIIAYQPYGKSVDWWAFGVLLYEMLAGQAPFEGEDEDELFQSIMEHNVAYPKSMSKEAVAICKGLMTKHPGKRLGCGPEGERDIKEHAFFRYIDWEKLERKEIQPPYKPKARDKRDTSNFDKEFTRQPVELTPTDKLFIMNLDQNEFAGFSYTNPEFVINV", "experiment": "kinase profiler assay (radiometric)", "type": "biochemical", "conditions": "@ = 30 μm peptide; less than 100 = kinase inhibition, greater than 100 = stimulation", "from_the_text": "(§1) KIP peptides […] [SEQ ID NO: 142], […] [SEQ ID NO: 173], and […] [SEQ ID NO: 163] were utilized to profile a variety of different kinases. The kinase profiler assay services provided by Upstate, a part of Millipore Corporation (Billerica, Mass.), were utilized to conduct the kinase profiles. The kinase profiler assays, which are radiometric, are based on measuring the amount of radioactive transfer from an ATP (y-^33P-ATP) to a substrate peptide using known concentrations of kinase enzyme, inhibitor, ATP, and buffer at defined time points and temperatures. Details on the reaction conditions for each kinase are available at www.millipore.com/drugdiscovery/dd3/KinaseProfiler. […] ROCK-1(h) (5-10 mU) was incubated with 8 mM MOPS pH 7.0, 0.2 mM EDTA, 30 i.IM of the peptide […] [SEQ ID NO: 189], 10 mM Mg acetate and y-^33P-ATP (specific activity approximately 500 cpm/pmol, concentration as required) in a final reaction volume of 25 pl. The reaction was initiated by the addition of the MgATP mixture in the absence and presence of inhibitor compounds. After incubation for 40 minutes at room temperature, the reaction was stopped by the addition of 5) 11 of a 3% phosphoric acid solution. 10 pl of the reaction mixture then was spotted onto a P30 filtermat. The filtermat was washed three times for 5 minutes in 75 mM phosphoric acid, once in methanol, dried and counted by scintillation counting. Where the kinase is uninhibited, the kinase phosphorylates a positively charged substrate with radioactive ATP, which then binds to a negatively charged filter membrane. Scintillation counts (radioactivity) directly correlate with kinase activity. […] All profile data less than 100 indicate kinase inhibition while data greater than 100 indicate kinase stimulation."}, "PKG1α (h)": {"molecular_target": "T2, PKG1α (h) (Homo sapiens, UniProt Q13976)", "T2 construct": "purchased Upstate (Millipore) KinaseProfiler service", "T2 sequence (Q13976 1-671)": "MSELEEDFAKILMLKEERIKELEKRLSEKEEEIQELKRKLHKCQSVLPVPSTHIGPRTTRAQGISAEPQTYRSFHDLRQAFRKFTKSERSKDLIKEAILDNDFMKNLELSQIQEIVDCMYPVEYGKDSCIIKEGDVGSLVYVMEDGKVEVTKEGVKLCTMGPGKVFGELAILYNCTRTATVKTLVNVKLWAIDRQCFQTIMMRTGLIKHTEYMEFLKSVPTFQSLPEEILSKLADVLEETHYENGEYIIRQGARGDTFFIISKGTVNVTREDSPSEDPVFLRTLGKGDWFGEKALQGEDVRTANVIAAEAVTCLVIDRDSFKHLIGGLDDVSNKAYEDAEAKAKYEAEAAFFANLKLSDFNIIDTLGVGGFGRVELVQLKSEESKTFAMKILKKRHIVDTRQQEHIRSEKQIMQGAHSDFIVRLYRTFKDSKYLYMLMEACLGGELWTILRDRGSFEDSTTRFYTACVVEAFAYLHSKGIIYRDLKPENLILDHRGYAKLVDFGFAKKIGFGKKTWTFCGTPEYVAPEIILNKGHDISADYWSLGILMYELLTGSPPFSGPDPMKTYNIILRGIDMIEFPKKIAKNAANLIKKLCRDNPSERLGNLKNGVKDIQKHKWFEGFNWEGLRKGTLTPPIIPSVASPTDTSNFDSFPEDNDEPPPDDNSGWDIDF", "experiment": "kinase profiler assay (radiometric)", "type": "biochemical", "conditions": "@ = 30 μm peptide; less than 100 = kinase inhibition, greater than 100 = stimulation", "from_the_text": "as §1"}}, "data": [{"sequence": "WLRRIKAWLRRIKALNRQLGVAA", "values": [{"measurement": "Profile-1, PKC β 1 (h)", "setting": "PKC β 1 (h)", "value": 8}, {"measurement": "Profile-1, PKG1α (h)", "setting": "PKG1α (h)", "value": 16}]}]}
